Reference: doi:10.64898/2025.12.16.693247 (2025)

How the values were obtained:
[1] = target: RIPR EGF 9+ (L898 - N1086) (P. falciparum, UniProt O97302 898-1086, N964Q | N1021Q); assay: SPR
[2] = target: RIPR EGF 7+; assay: SPR
[3] = target: RIPR EGF 6+; assay: SPR
[4] = target: RIPR EGF 8+; assay: SPR
[5] = target: T1, full-length RIPR (RH5-interacting protein) (P. falciparum, UniProt O97302 20-1086); assay: BLI; 2:1 heterogeneous ligand fit, KD1
[6] = target: T2, RIPR-Tail (D717 - N1086) (P. falciparum, UniProt O97302 717-1086, N964Q | N1021Q); assay: SPR; RIPR-Tail immobilised, steady state
[7] = target: T2, RIPR-Tail (D717 - N1086); assay: SPR; PTRAMP-CSS immobilised, steady state
[8] = target: T1, full-length RIPR (RH5-interacting …); assay: BLI; 2:1 heterogeneous ligand fit, KD2 (second site)
[9] = target: mono-biotinylated RIPR-Tail (P. falciparum, UniProt O97302 717-1086, N964Q | N1021Q, biotin on the BAP tag (mono-biotinylated by co-transfected BirA)); assay: SPR

B1: PTRAMP-CSS heterodimer (complex)
chain 1: CNLKVRNNWEHFLQVYQNNGNFKMEILEPECTIQKNLPSEEEKEEFIDFDRKELLLHDFVVIKNSQFTDEKTLELYLSKEENNKSYLMLTFYLGDLKLMIGHNSPYEISLILNVATVNKNMSNCKNNSYNIVLLKTTDVFNTSDLEILEGPIQFSLGKSSGAFRINVTNFFLNNTWKAFTKDKISFLIKPEENCYTILENKINKPQLLIEKKTTFYSEWGEWSNCSMDCDHPDNVQIRERECIHPSGDCFKGDLKESRPCIIPLPPCNELFSHKDNST
chain 2: QDEKSVKNICVCDFTDKLNFLPLEKTKILCELKPQYGEDIKIIANKEYEINCMNNSKVFCPLKDTFINNTNIKLYSPKLHFEIKDITHKGKNAALYYLKIDEEASDIFFSCSIKPKQVSGLLEGEVRVNLKKHINEEYSIFNEEEDVHVCDFSKGNLDITPSAGFYLKNSRNVSCIYRVIPNKLFLIKLPKLDIVTEKLLPSIVNCLSEFSFINFTLKHVQEGDNYISFNVIFGEFKKHFNLTCSLDLSDFQQEPCNLGKTANITFIFSK
With B1 the Kd [1] was 6.44 µM, the Kd [2] was 2.35 µM and the Kd [3] was 5.15 µM. It also gave a Kd [4] of 3.55 µM, a Kd [5] of 0.00113 µM and a Kd [6] of 5.69 µM. It also gave a Kd [7] of 6.23 µM and a Kd [8] of 0.176 µM.

B2: CSS (cysteine-rich small secreted protein), residues Q21-K290 (natural protein)
chain: QDEKSVKNICVCDFTDKLNFLPLEKTKILCELKPQYGEDIKIIANKEYEINCMNNSKVFCPLKDTFINNTNIKLYSPKLHFEIKDITHKGKNAALYYLKIDEEASDIFFSCSIKPKQVSGLLEGEVRVNLKKHINEEYSIFNEEEDVHVCDFSKGNLDITPSAGFYLKNSRNVSCIYRVIPNKLFLIKLPKLDIVTEKLLPSIVNCLSEFSFINFTLKHVQEGDNYISFNVIFGEFKKHFNLTCSLDLSDFQQEPCNLGKTANITFIFSK
B2 showed a Kd [9] of 0.95 µM.
